# Experimental data published in patent US5418135.
# Biological target: PDGF receptor (cell membrane-bound receptor for native PDGF)
row,HALF-MAX INHIBITION (3H-thymidine incorporation induced by PDGF dimer),Substance
1,100 nM,"A4, Endo Lys-C fragment aa 80-110 of alkylated PDGF A monomer (peptide)"
2,> 200 nM,"A6, Endo Lys-C fragment aa 12-41 of alkylated PDGF A monomer (peptide)"
3,100 nM,"PDGF A chain monomer, intact, Cys residues pyridylethylated (ligand)"
